This assay deals with HMPV F v3B_Δ12 (human metapneumovirus). Description: BLI; Octet Red384; […] (500.0 nM to 7.8 nM), 300 s association and 300 s dissociation; 30°C, […]; global 1:1 fit. In general terms: Biolayer interferometry detects binding as a change in optical thickness at a sensor tip.

In article PMC10516418 one finds Kd data, which are given here for one substance.

MPE8 antigen-binding fragment (Fab): the Kd (usually a measure of binding affinity in units of concentration) came out at 21 nM.
